Assay results taken from patent US7977317B2, “Compositions and methods for modulating blood-brain barrier transport” (Raptor Pharmaceutical Inc., priority 2001, dated 2011).

B1: lactoferrin: lactoferrin (Lf), LRP ligand used as competitor (protein, UniProt P02788 20-710, looked up)
Lactotransferrin: GRRRSVQWCAVSQPEATKCFQWQRNMRKVRGPPVSCIKRDSPIQCIQAIAENRADAVTLDGGFIYEAGLAPYKLRPVAAEVYGTERQPRTHYYAVAVVKKGGSFQLNELQGLKSCHTGLRRTAGWNVPIGTLRPFLNWTGPPEPIEAAVARFFSASCVPGADKGQFPNLCRLCAGTGENKCAFSSQEPYFSYSGAFKCLRDGAGDVAFIRESTVFEDLSDEAERDEYELLCPDNTRKPVDKFKDCHLARVPSHAVVARSVNGKEDAIWNLLRQAQEKFGKDKSPKFQLFGSPSGQKDLLFKDSAIGFSRVPPRIDSGLYLGSGYFTAIQNLRKSEEEVAARRARVVWCAVGEQELRKCNQWSGLSEGSVTCSSASTTEDCIALVLKGEADAMSLDGGYVYTAGKCGLVPVLAENYKSQQSSDPDPNCVDRPVEGYLAVAVVRRSDTSLTWNSVKGKKSCHTAVDRTAGWNIPMGLLFNQTGSCKFDEYFSQSCAPGSDPRSNLCALCIGDEQGENKCVPNSNERYYGYTGAFRCLAENAGDVAFVKDVTVLQNTDGNNNEAWAKDLKLADFALLCLDGKRKPVTEARSCHLAMAPNHAVVSRMDKVERLKQVLLHQQAKFGRNGSDCPDKFCLFQSETKNLLFNDNTECLARLHGKTTYEKYLGPQYVAGITNLKKCSTSPLLEACEFLRK
B2: p97: recombinant human melanotransferrin (p97), provided by Synapse Technologies (protein, UniProt P08582 20-709, looked up)
Melanotransferrin: GMEVRWCATSDPEQHKCGNMSEAFREAGIQPSLLCVRGTSADHCVQLIAAQEADAITLDGGAIYEAGKEHGLKPVVGEVYDQEVGTSYYAVAVVRRSSHVTIDTLKGVKSCHTGINRTVGWNVPVGYLVESGRLSVMGCDVLKAVSDYFGGSCVPGAGETSYSESLCRLCRGDSSGEGVCDKSPLERYYDYSGAFRCLAEGAGDVAFVKHSTVLENTDGKTLPSWGQALLSQDFELLCRDGSRADVTEWRQCHLARVPAHAVVVRADTDGGLIFRLLNEGQRLFSHEGSSFQMFSSEAYGQKDLLFKDSTSELVPIATQTYEAWLGHEYLHAMKGLLCDPNRLPPYLRWCVLSTPEIQKCGDMAVAFRRQRLKPEIQCVSAKSPQHCMERIQAEQVDAVTLSGEDIYTAGKTYGLVPAAGEHYAPEDSSNSYYVVAVVRRDSSHAFTLDELRGKRSCHAGFGSPAGWDVPVGALIQRGFIRPKDCDVLTAVSEFFNASCVPVNNPKNYPSSLCALCVGDEQGRNKCVGNSQERYYGYRGAFRCLVENAGDVAFVRHTTVFDNTNGHNSEPWAAELRSEDYELLCPNGARAEVSQFAACNLAQIPPHAVMVRPDTNIFTVYGLLDKAQDLFGDDHNKNGFKMFDSSNYHGQDLLFKDATVRAVPVGEKTTYRGWLGLDYVAALEGMSSQQC

Assays:
Megalin = Megalin (Homo sapiens, UniProt P98164); conditions: Tables 1-3; cited from earlier work
Sequence of Megalin (P98164 26-4655, species assumed): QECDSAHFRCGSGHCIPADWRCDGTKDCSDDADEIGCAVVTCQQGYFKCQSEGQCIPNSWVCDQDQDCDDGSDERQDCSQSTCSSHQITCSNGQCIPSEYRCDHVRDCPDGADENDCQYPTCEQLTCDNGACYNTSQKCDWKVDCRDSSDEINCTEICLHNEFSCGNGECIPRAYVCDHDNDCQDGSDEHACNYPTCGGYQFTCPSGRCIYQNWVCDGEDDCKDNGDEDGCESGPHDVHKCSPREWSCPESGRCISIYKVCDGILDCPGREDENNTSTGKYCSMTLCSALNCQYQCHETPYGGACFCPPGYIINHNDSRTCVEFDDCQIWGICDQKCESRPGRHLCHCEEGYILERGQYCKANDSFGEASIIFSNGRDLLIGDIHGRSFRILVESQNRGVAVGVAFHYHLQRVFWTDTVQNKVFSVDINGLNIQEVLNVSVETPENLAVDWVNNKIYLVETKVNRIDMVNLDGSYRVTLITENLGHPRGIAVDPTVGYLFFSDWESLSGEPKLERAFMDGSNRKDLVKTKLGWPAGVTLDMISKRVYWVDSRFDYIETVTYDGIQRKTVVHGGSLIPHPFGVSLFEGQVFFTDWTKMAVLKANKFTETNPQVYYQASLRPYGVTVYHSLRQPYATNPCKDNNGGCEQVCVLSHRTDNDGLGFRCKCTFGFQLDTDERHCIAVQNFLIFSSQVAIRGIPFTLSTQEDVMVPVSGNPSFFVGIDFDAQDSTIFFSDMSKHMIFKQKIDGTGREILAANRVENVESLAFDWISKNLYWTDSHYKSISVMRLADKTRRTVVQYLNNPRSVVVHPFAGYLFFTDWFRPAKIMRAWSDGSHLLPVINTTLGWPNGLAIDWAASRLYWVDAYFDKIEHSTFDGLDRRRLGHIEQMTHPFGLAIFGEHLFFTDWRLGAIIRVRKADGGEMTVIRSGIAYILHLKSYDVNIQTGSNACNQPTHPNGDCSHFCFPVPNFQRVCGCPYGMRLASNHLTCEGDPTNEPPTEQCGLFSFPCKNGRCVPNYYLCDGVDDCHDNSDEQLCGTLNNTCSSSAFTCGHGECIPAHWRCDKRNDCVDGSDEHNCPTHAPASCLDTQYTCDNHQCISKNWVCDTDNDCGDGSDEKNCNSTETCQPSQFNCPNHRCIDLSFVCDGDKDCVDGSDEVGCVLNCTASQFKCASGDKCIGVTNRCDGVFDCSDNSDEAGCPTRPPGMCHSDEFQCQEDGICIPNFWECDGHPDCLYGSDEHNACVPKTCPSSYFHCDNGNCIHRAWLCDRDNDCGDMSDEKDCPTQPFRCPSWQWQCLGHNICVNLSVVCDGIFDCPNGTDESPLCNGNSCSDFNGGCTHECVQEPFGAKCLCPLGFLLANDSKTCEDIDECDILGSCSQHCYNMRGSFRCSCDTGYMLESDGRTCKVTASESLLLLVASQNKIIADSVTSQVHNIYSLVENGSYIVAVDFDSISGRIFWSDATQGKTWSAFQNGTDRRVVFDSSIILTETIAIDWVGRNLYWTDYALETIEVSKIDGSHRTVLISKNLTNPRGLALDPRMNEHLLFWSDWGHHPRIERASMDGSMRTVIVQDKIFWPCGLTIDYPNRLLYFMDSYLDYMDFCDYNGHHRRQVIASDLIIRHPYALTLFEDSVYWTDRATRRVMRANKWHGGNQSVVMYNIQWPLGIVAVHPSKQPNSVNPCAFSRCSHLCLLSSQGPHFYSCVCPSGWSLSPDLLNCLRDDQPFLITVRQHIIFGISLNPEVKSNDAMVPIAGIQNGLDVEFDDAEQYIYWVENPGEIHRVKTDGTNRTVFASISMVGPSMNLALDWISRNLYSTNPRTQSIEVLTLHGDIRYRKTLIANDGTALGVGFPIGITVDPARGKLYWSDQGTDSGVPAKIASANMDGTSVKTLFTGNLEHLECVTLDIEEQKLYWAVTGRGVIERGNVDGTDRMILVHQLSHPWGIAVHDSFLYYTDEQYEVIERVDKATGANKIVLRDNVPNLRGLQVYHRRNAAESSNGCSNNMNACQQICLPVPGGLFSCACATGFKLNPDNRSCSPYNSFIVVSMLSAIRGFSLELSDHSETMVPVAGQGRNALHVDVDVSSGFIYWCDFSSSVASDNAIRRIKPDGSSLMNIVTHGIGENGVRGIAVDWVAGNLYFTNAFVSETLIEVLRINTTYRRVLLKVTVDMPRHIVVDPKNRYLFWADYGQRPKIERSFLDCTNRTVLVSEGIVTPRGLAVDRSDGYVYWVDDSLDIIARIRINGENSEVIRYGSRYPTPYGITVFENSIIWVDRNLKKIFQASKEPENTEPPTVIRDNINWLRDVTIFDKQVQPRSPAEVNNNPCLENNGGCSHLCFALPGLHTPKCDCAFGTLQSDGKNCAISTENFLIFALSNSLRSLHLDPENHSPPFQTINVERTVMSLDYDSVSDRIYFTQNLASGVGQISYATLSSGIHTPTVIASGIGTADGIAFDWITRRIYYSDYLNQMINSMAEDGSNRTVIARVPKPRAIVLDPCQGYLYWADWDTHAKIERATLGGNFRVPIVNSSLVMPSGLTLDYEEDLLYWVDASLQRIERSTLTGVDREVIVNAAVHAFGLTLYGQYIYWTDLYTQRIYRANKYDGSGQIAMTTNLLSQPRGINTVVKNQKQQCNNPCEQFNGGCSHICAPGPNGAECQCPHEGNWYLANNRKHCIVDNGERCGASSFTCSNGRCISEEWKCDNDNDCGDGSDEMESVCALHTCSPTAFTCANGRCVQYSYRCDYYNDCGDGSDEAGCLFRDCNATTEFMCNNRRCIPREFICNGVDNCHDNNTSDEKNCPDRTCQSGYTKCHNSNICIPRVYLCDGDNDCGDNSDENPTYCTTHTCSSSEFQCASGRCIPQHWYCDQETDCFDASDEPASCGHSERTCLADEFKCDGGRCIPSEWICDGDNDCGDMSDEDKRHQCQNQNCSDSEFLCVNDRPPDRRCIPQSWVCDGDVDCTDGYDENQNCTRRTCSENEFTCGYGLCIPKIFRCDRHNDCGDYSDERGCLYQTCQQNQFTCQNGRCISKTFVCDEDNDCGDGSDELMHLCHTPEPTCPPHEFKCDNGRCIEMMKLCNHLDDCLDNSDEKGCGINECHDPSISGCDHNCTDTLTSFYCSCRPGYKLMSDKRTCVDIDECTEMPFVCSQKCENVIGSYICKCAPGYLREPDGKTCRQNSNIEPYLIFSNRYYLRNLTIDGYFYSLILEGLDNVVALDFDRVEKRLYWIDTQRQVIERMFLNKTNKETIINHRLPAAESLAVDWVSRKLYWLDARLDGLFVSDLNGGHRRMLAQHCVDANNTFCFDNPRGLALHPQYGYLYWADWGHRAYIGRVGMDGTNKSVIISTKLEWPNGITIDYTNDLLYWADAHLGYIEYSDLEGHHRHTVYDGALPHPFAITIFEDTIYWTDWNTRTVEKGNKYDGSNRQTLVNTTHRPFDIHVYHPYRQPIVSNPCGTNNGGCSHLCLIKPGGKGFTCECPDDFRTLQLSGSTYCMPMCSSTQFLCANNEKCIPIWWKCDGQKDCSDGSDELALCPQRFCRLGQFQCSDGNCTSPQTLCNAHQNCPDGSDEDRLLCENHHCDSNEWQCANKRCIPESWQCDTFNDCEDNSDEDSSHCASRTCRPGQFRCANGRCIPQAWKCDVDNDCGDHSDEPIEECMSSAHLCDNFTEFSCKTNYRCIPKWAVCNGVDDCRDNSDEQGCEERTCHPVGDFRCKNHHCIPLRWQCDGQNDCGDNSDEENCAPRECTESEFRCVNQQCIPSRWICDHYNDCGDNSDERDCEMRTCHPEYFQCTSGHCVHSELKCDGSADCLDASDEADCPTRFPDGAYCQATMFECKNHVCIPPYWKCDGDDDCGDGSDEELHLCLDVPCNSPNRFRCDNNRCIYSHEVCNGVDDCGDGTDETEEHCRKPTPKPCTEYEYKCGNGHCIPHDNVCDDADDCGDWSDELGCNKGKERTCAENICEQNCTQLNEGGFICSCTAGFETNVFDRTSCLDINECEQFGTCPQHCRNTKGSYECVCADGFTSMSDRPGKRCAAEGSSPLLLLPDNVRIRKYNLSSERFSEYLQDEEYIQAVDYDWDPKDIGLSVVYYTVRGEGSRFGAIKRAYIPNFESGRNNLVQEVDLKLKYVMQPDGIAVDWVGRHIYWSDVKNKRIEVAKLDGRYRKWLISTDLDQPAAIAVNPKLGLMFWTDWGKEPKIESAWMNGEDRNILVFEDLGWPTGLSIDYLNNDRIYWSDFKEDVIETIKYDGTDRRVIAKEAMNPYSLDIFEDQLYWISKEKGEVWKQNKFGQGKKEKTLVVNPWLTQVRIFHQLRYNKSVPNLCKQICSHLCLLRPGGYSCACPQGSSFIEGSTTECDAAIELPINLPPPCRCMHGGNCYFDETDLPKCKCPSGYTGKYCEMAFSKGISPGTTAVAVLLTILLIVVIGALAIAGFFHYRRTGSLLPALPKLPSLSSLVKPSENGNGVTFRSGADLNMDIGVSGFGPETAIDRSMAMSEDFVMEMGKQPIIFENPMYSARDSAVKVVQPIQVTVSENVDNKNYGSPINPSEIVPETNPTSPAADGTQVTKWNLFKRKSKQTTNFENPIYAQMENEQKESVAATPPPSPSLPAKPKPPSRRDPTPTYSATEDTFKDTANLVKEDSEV

LRP/LRP1B = experiment: Ligand binding and cross-linking, LRP/LRP1B immunodetection in U-87 cells; parameters: species or system human; conditions: 4° C., cross-linked, non-reducing SDS-PAGE (FIG. 29)
Method: FIG. 29. […] U-87 cells were grown in monolayer in six-multiwell microplates at 37° C. under 5% CO2. The cell monolayer were incubated at 4° C. with p97 or RAP in Ringer/Hepes solution. After incubation, cell monolayer was washed 3 times with cold-Ringer/Hepes solution and proteins were cross-linked with 1 mM DSS. After, cells were lysed and equal quantities of protein (25 μg) were subjected to SDS-PAGE under non-reducing conditions and electroblotted onto PVDF membranes. […] (n=2).
Ligand-binding. Briefly, cells were incubated with [^125I]-p97 in Ringer/Hepes solution, in presence or in absence of 5 μM cold-P97 for 1 h at 4° C. After incubation, the cell monolayer was washed three times with cold Ringer/Hepes solution. After the ligand binding at 4° C., cell monolayer was washed three times with cold Ringer/Hepes solution and was incubated with DSS (Disuccinimidyl suberate) or Lomant's reagent DSP (Dithiobis(succinimidyl propionate)) from Pierce. After the cross-link, cells were lysed and proteins were separated by SDS-PAGE electrophoresis. Gels were fixed, dryed and exposed to Kodak films at −80° C. for about 3 weeks before developing. The cross-link was performed exactly as the manufacturer's protocol.

Cubilin = experiment: RT-PCR after p97 treatment in U-87 cells: Cubilin; format: cell-based, human; conditions: 72 hours, RT-PCR (FIG. 35)
Method: FIG. 35. Effect of p97 and RAP treatments in U-87 cells (RT-PCR). Cells (2×10^5) were plated onto six-multiwell microplates and grown at 37° C. under 5% CO2 with optimal culture medium supplemented with serum for 4 days. Treatment was performed in serum free medium for 72 hours. RNA isolation and RT-PCR were performed as described in the Examples. The amplified PCR products were electrophoresed on a 2% agarose gel and visualized under ultraviolet light. (n=2 for p97), (n=1 for RAP)
FIG. 38. Effect of p97 and RAP treatments in U-87 cells on expression of cubulin (A), P97 (B) and Megalin (C). The amplified PCR products were electrophoresed on a 2% agarose gel and visualized under ultraviolet light. (n=1). Quantification was by densitometry of p97 and RAP treatments on the RNA levels of LRP1B, LRP, LDL-R, cubilin, endogenous p97 and megalin. Results are expressed as ratios of RNA levels between control and treated U-87 cells.
RNA extraction. Cells in six-wells plate or in 75 cm^2 plastic tissue culture flasks were grown at 37° C. under 5% CO2 with optimal culture medium to 80-90% confluence. Total cellular RNA was preserved in Trizol (Gibco BRL, Burlington, ON). The solution are frozen at −80° C. until extraction. The solution was defroze and mixed with 5:1 chloroform for 3 minutes at room temperature. The suspension was centrifugated at 12000 g at 4° C. […]

BBCE = experiment: Transcellular co-localization of p97 with clathrin in BBCE; format: cell-based, bovine; conditions: clathrin versus caveolin
Description: FIG. 21 depicts the transcellular co-localization of p97 and clathrin turning transcytosis.
Transcellular localization of p97 and clathrin was examined in BBCE as the p97 moved from the luminal to abluminal side of the BBB model (FIG. 21). The data are indicative of a co-migration of p97 and clathrin. As a control for the effect of the Alexa label, the behavior of p97 and p97-alexa were compared. (data not shown).

LRP1B = experiment: RT-PCR after p97 treatment in MG1391 fibroblast cells: LRP1B; format: cell-based; conditions: fibroblast cell line MG1391, RT-PCR (FIGS. 40 and 41)
Method: FIG. 39 show the expression of members of the LDL receptor family in MG1391. RT-PCR. RT-PCR was performed for members of the LDL-R family: LRP, LRP1B, megalin, LDL, VLDL, LRP8, LR11, LRP5 and cubulin. DNA (cDNA) synthesis was performed with 1 μg of total RNA using a cDNA one step synthesis kit (Invitrogen, USA) following the manufacturer's protocol. (1× of reaction mix, RNA 1 μg, 0.2 μM of both primers, 1 μl of RT/Platinum Tag mix). The cDNA generated was amplified using primers produced with MacVector 7.0 (Oxford molecular Ltd, Oxford, UK). All the subsequent assays were then performed under conditions that produced amplifications of cDNA within a linear range. RT inverse-transcription was performed at 50° C. for 30 min. PCR amplification for 35 or 40 cycles for all was performed as follows: denaturation at 94° C. for 30 s, annealing at 60° C. for 30 s and extension at 72° C. for 1 min. Finalisation stage was performed at 72° C. for 5 min. Tubes containing all the ingredients except templates were included in all runs and served as negative controls. The amplified PCR products were electrophoresed on a 1% agarose gel in TAE (40 mM Tris, […], 1 mM EDTA, […] Ethidum bromide) and were visualized under ultraviolet light followed by densitrometric analysis.

Row | Molecule | Binding to Megalin (Megalin) | Association with LRP/LRP1B (LRP/LRP1B) | Expression of the Cubilin receptor (Cubilin) | Co-localization during endocytosis/transcytosis (BBCE) | Expression of LRP1B in MG1391 cells (LRP1B)
1 | B1 | Yes |  |  |  | 
2 | B2 |  | high molecular weight dissociable complex | induces the expression | co-localize with clathrin | particularly induces the expression
